Reference: US20150344535A1 (UNIVERSITY OF QUEENSLAND, published 2015)

T1: p75^Δ-JUX (UniProt P07174 30-425)
T1 construct: whole, on cells; In HEK293 lysate in the co-immunoprecipitation, on HEK293 cells in the NGF-FITC assays; also called p75^NTR with an intracellular juxtamembrane deletion
T1 sequence (looked up): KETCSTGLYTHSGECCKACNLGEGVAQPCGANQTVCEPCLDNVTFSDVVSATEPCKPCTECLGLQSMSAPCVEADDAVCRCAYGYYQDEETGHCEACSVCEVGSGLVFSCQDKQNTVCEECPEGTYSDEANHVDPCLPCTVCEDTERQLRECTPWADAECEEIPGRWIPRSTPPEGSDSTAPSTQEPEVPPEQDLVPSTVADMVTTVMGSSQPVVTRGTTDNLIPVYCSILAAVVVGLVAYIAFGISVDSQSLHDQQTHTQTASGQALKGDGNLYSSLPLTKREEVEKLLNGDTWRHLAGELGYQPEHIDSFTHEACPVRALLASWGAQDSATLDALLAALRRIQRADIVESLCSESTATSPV

T2: p75^FL on transfected HEK293 cells (UniProt P07174 30-425)
T2 construct: whole, on cells; also called p75^NTR
T2 sequence (looked up): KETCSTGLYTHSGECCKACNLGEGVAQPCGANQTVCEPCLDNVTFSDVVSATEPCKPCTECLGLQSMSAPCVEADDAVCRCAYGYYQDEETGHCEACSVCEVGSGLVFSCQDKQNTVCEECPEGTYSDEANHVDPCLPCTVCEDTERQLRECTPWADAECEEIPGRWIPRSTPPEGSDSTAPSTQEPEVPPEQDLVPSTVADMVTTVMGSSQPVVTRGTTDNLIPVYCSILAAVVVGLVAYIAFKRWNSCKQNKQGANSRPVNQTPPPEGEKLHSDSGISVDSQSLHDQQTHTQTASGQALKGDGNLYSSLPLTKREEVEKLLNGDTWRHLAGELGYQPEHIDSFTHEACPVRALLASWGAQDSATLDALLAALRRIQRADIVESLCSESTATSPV

B1: NGF-FITC (ligand, mouse, UniProt P01139 122-239, looked up)
chain: SSTHPVFHMGEFSVCDSVSVWVGDKTTATDIKGKEVTVLAEVNINNSVFRQYFFETKCRASNPVESGCRGIDSKHWNSYCTTTHTFVKALTTDEKQAAWRFIRIDTACVCVLSRKATR
modifications: conjugated to FITC
notes: also called fluorescently labelled NGF; FITC-NGF
B2: unlabelled NGF (ligand, mouse, UniProt P01139 122-239, looked up)
chain: B1 chain
notes: also called unlabeled NGF

Assays:
[1] = target: T1, p75^Δ-JUX; assay: flow cytometry, 26 nM NGF-FITC 60 min on ice, transfected HEK293 cells
Method: (§1) To investigate NGF binding, PC12 or transfected HEK293 cells were serum starved for 4 hours, harvested, washed with Dulbecco's Modified Eagle Medium (DMEM), and counted. When used, c29 or scrambled peptide were added to cultures for the third hour of the serum starvation procedure.

[2] = target: T2, p75^FL on transfected HEK293 cells; assay: as above
Method: as §1

[3] = target: T3, TrkAK538A; assay: as above
T3 construct: whole, on cells; On transfected HEK293 cells in flow cytometry; in HEK293 lysates in the co-immunoprecipitations; also called TrkK538A
Method: as §1

[4] = target: T3, TrkAK538A; assay: real-time flow cytometry, Hill-Slope association curve, TrkAK538A-expressing HEK293 cells pre-treated with c29
[5] = target: T1, p75^Δ-JUX; assay: flow cytometry competition against 26 nM NGF-FITC, transfected HEK293 cells
Method: as §1

[6] = target: T2, p75^FL on transfected HEK293 cells; assay: as above
Method: as §1

[7] = target: T3, TrkAK538A; assay: as above
Method: as §1

[8] = target: T4, TrkAK538A and p75^FL co-expressed on HEK293 cells (UniProt P07174 30-425); assay: flow cytometry competition against 26 nM NGF-FITC, co-transfected HEK293 cells
T4 construct: whole, on cells; Two receptors on the same cells; also called TrkAK538A + p75^FL
Method: as §1

[9] = target: T5, TrkAK538A and p75^Δ-JUX co-expressed on HEK293 cells (UniProt P07174 30-425); assay: as above
T5 construct: whole, on cells; Two receptors on the same cells; also called TrkAK538A + p75^ΔJUX
Method: as §1

Binder	% of cells with fluorescence intensity above background [1] [%]	% of cells with fluorescence intensity above background [2] [%]	% of cells with fluorescence intensity above background [3] [%]	fold faster association rate against untreated TrkAK538A-expressing cells [4] [fold]	excess of unlabelled NGF required for NGF-FITC binding to fall to background fluorescence [5] [fold]	excess of unlabelled NGF required for NGF-FITC binding to fall to background fluorescence [6] [fold]	excess of unlabelled NGF required for NGF-FITC binding to fall to background fluorescence [7] [fold]	excess of unlabelled NGF required for NGF-FITC binding to fall to background fluorescence [8] [fold]	excess of unlabelled NGF required for NGF-FITC binding to fall to background fluorescence [9] [fold]
B1	80	80	80	~3					
B2					1000	1000	1000	1000	1000
